PMC8408865

Target: C-terminal domain of Caenorhabditis elegans KCC-1, wild type, as used in solution (SEC, SEC/MALS) (C. elegans)
Test: SEC

- stoichiometry N: 2
Substance: C-terminal domain of Caenorhabditis elegans KCC-1, wild type, as used in solution (SEC, SEC/MALS) (domain or fragment)
